A word on the Kd: it is the equilibrium constant for the complex coming apart. Read a high Kd as lower affinity. As a reminder, the koff is the first-order rate constant of dissociation. Usually kon stands for the rate constant with which the complex forms. Low values mean slow association, high ones fast association. As a reminder, the IC50 is the concentration needed to halve the response being measured. Read a low IC50 as greater potency in that assay.

For one assay, the target named is human PDGF-BB (human, UniProt P01127 82-190). The experiment in a line: SPR (Biacore 3000), 30 nM ligand over hPDGFRb.mFc captured by anti-mouse Fc, no antibody. An excerpt:
Real-time binding response was monitored throughout the course of the assay and was compared to the binding response measured when PDGF ligand was applied over the derivatized captured control surface in the absence of captured antibody.

Assay [1] has as its target T1, hPDGFRb.mmh (human, UniProt P09619 33-531).
T1 construct: Soluble monomeric construct; also called soluble human PDGFR-beta.mmh
Put plainly: Octet BLI cross-competition, 25 C; hPDGFRb.mmh on anti-Penta-His tips pre-saturated with mAb-1 H4H3310N (row 9). The procedure: (§1) A cross-competition assay was conducted to assess the ability of select antibodies to compete with one another for binding to human PDGFR-beta. […] Each PDGFR-beta.mmh-coated sensor tip was saturated for 5 min with a first anti-PDGFR-beta antibody (Mab #1; 50 μg/mL). Next, each sensor tip was saturated with a solution of a second anti-PDGFR-beta antibody (Mab #2). The real time response of Mab #2 binding to PDGR-beta.mmh pre-complexed with Mab #1 was then monitored. All assays were performed at 25° C. with a flow rate of 1000 rpm on an Octet RED384 biosensor in Octet HBST buffer according to manufacturer's instructions (ForteBio Corp., Menlo Park, Calif.). Results are illustrated in FIG. 2.
On the technique in general: BLI is a label-free optical method that tracks binding on a fibre tip over time.

For assay [2], the target named is T1, hPDGFRb.mmh. Put plainly: SPR, mAb captured, 37 C. The procedure:
(§2) Antibodies, expressed as either mouse Fc (prefix H1M; H2M) or human Fc (prefix H4H), were captured on their respective anti-Fc sensor surfaces (Mab capture format). […] Kinetic association (kₐ) and dissociation (kd) rate constants were determined by processing and fitting the data to a 1:1 binding model using Scrubber 2.0 curve fitting software.
Target sequence in this assay (P09619 other isoform, or with tags, fused parts or gaps): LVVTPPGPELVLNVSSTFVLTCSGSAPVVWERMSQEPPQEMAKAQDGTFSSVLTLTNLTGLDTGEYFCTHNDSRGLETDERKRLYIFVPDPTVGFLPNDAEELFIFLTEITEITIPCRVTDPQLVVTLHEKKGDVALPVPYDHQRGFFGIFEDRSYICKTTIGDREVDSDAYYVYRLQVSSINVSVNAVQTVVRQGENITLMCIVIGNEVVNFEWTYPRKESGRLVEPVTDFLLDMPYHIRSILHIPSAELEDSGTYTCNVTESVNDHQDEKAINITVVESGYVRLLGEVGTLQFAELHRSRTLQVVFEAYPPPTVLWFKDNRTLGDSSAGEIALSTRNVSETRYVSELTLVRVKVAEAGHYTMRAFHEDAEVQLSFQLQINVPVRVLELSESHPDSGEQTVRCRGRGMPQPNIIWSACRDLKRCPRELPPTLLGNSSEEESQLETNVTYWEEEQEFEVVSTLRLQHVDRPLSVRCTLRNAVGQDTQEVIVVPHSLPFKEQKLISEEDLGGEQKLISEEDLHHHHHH
In general terms: In SPR one partner is held on a chip, and binding of the other changes the refractive index at the surface.

The target of assay [3] is T2, Macaca fascicularis PDGFRb.mmh (Macaca fascicularis).
T2 construct: Soluble monomeric construct; also called mfPDGFRb.mmh
T2 chain: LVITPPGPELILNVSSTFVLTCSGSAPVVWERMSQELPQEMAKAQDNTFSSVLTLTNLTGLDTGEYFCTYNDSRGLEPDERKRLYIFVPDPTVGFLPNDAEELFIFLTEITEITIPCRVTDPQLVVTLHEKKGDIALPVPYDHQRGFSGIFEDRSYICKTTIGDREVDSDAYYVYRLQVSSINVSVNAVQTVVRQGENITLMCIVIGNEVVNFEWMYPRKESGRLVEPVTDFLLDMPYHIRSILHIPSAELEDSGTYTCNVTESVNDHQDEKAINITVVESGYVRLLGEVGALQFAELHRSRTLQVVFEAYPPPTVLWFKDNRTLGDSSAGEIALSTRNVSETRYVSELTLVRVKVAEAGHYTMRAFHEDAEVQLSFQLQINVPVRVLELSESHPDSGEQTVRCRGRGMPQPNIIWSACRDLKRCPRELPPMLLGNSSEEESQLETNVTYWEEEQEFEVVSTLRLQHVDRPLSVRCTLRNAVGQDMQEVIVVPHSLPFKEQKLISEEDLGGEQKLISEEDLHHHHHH
Put plainly: SPR, mAb captured, 37 C. The method, then: as §2

Assay [4] concerns the target T3, human PDGFRb.hFc (human).
T3 construct: Soluble dimeric construct with human Fc; also called hPDGFRb.hFc
The experiment in a line: SPR, mAb captured, 37 C. The procedure: as §2

Assay [5] addresses T1, hPDGFRb.mmh. The experiment in a line: Octet BLI cross-competition, 25 C; hPDGFRb.mmh on anti-Penta-His tips pre-saturated with mAb-1 H4H3374N (row 3). The method, then: as §1
Assay [6] has as its target T1, hPDGFRb.mmh. The experiment in a line: SPR, mAb captured, 25 C. The method, then: as §2
Target sequence in this assay (P09619 other isoform, or with tags, fused parts or gaps): as the sequence (P09619 other isoform, or with tags, fused parts or gaps) above
Assay [7] deals with T2, Macaca fascicularis PDGFRb.mmh. The experiment in a line: SPR, mAb captured, 25 C. The procedure: as §2
Assay [8] deals with T3, human PDGFRb.hFc. The experiment in a line: SPR, mAb captured, 25 C. The method, then:
as §2

The target of assay [9] is T1, hPDGFRb.mmh. The experiment in a line: Octet BLI cross-competition, 25 C; hPDGFRb.mmh on anti-Penta-His tips pre-saturated with mAb-1 H4H3107S (row 7). The procedure:
as §1

Assay [10] addresses T1, hPDGFRb.mmh. The experiment in a line: Octet BLI cross-competition, 25 C; hPDGFRb.mmh on anti-Penta-His tips pre-saturated with mAb-1 Control I (row 1). The procedure:
as §1

Assay [11] addresses T1, hPDGFRb.mmh. The experiment in a line: Octet BLI cross-competition, 25 C; hPDGFRb.mmh on anti-Penta-His tips pre-saturated with mAb-1 H4H3365N (row 2). The procedure:
as §1

For assay [12], the target named is T1, hPDGFRb.mmh. Put plainly: Octet BLI cross-competition, 25 C; hPDGFRb.mmh on anti-Penta-His tips pre-saturated with mAb-1 H4H3094P (row 5). The method, then:
as §1

Assay [13] has as its target T1, hPDGFRb.mmh. The experiment in a line: blocking ELISA, biot-hPDGFRb.mmh to coated PDGF-BB. For orientation: ELISA stands for enzyme-linked immunosorbent assay.
Target sequence in this assay (P09619 other isoform, or with tags, fused parts or gaps): as the sequence (P09619 other isoform, or with tags, fused parts or gaps) above
For assay [14], the target named is T4, full length human PDGFR-beta on HEK293 cells (human, UniProt P09619 33-1106). Put plainly: cell-based or functional assay.
T4 sequence (P09619 33-1106 limits assumed): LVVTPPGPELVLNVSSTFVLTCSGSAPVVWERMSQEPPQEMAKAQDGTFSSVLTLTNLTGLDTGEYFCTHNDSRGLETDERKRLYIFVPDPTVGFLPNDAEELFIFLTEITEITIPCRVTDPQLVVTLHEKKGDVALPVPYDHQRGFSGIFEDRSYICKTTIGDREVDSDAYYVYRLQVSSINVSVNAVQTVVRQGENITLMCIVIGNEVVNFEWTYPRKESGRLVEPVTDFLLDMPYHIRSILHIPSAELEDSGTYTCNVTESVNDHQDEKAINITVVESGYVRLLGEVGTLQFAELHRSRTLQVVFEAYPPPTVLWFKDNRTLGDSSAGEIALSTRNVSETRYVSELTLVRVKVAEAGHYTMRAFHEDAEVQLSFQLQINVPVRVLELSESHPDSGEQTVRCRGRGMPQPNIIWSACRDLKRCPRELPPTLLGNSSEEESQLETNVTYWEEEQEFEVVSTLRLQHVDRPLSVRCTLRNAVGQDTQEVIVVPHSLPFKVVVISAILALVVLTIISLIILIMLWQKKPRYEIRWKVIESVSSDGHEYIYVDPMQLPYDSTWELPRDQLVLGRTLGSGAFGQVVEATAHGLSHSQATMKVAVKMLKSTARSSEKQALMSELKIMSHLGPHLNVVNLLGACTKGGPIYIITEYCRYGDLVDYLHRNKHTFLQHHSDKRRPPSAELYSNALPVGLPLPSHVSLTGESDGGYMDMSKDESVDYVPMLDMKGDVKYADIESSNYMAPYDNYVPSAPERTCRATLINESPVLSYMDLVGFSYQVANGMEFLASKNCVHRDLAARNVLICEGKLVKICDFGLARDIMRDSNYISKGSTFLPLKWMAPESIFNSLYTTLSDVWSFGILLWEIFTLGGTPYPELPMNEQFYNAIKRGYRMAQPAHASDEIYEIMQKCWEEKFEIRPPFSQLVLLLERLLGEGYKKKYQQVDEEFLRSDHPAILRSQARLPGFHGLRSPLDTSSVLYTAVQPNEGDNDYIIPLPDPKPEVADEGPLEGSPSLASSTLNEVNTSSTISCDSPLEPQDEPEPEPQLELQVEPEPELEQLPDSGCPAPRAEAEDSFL
Assay [15] addresses T1, hPDGFRb.mmh. The experiment in a line: Octet BLI cross-competition, 25 C; hPDGFRb.mmh on anti-Penta-His tips pre-saturated with mAb-1 H4H3099S (row 6). The method, then:
as §1

The target in assay [16] is T1, hPDGFRb.mmh. Put plainly: Octet BLI cross-competition, 25 C; hPDGFRb.mmh on anti-Penta-His tips pre-saturated with mAb-1 H4H3305N (row 8). The procedure: as §1
The target of assay [17] is T4, full length human PDGFR-beta on HEK293 …. Put plainly: cell-based or functional assay. This is another data set of the same source.

Sequence of human PDGF-BB (P01127 82-190 limits assumed): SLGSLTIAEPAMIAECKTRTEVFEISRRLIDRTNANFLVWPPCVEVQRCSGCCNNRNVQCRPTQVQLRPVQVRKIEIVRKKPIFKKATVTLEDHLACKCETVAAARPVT

B1: human PDGFRb.mFc (Fc fusion)
chain: LVVTPPGPELVLNVSSTFVLTCSGSAPVVWERMSQEPPQEMAKAQDGTFSSVLTLTNLTGLDTGEYFCTHNDSRGLETDERKRLYIFVPDPTVGFLPNDAEELFIFLTEITEITIPCRVTDPQLVVTLHEKKGDVALPVPYDHQRGFFGIFEDRSYICKTTIGDREVDSDAYYVYRLQVSSINVSVNAVQTVVRQGENITLMCIVIGNEVVNFEWTYPRKESGRLVEPVTDFLLDMPYHIRSILHIPSAELEDSGTYTCNVTESVNDHQDEKAINITVVESGYVRLLGEVGTLQFAELHRSRTLQVVFEAYPPPTVLWFKDNRTLGDSSAGEIALSTRNVSETRYVSELTLVRVKVAEAGHYTMRAFHEDAEVQLSFQLQINVPVRVLELSESHPDSGEQTVRCRGRGMPQPNIIWSACRDLKRCPRELPPTLLGNSSEEESQLETNVTYWEEEQEFEVVSTLRLQHVDRPLSVRCTLRNAVGQDTQEVIVVPHSLPFKEPRGPTIKPCPPCKCPAPNLLGGPSVFIFPPKIKDVLMISLSPIVTCVVVDVSEDDPDVQISWFVNNVEVHTAQTQTHREDYNSTLRVVSALPIQHQDWMSGKEFKCKVNNKDLPAPIERTISKPKGSVRAPQVYVLPPPEEEMTKKQVTLTCMVTDFMPEDIYVEWTNNGKTELNYKNTEPVLDSDGSYFMYSKLRVEKKNWVERNSYSCSVVHEGLHNHHTTKSFSRTPGK
notes: Soluble dimeric construct with mouse Fc; also called hPDGFRb.mFc; soluble human PDGFR-beta.mFc
Regarding B1, in the assay with human PDGF-BB, the binding result is on record as “binds”.

B2: H4H3103S (antibody, human IgG4, V domains shown)
VH: EVQLLQSGGGLVQPGGSLRLSCAASGFTFSHYWMSWVRQGPGKGLEWVATIKKDGSESYYVDSVRGRFTISRDNAKNSLYLQMNSLRTEDTAVYYCARDIVTPNVGYYFGMDVWGQGTTVTVSS
VL: DIQMTQSPSTLSASVGDRVTITCRASQSISSWLSWYQQKPGKAPKLLIYMASTLESGVPSRFSGSGSGTDFTLTITSLQPDDFATYYCQQSNSYSRTFGHGTKLEIK
notes: human IgG4 Fc (H4H prefix)
Regarding B2, the “Response of mAb-2 Binding to hPDGFRβ.mmh Pre-Complexed with mAb-1 (nm)” value with hPDGFRb.mmh [1] was 0.25 nm; in the assay with hPDGFRb.mmh [5] it was 0.01 nm; in the assay with hPDGFRb.mmh [9], 0.24 nm; with hPDGFRb.mmh [10] it was -0.01 nm; with hPDGFRb.mmh [11], 0.02 nm; in the assay with hPDGFRb.mmh [12], 0 nm. The “Response of mAb-2 Binding to hPDGFRβ.mmh Pre-Complexed with mAb-1 (nm)” value with hPDGFRb.mmh [15] and in the assay with hPDGFRb.mmh [16] was 0.26 nm throughout. In addition, the Kd was determined as 10.1 nM with hPDGFRb.mmh [2]; 10.2 nM in assay [3]; 0.405 nM in the assay with human PDGFRb.hFc [4]; 3.13 nM in the assay with hPDGFRb.mmh [6]; 3.24 nM in assay [7]; 0.264 nM in the assay with human PDGFRb.hFc [8]. The koff with hPDGFRb.mmh [2] came to 0.00497 s⁻¹; in assay [3], 0.00556 s⁻¹; with human PDGFRb.hFc [4], 0.000306 s⁻¹; in the assay with hPDGFRb.mmh [6], 0.00105 s⁻¹; in assay [7], 0.00116 s⁻¹; with human PDGFRb.hFc [8], 0.000164 s⁻¹. Besides, the kon in the assay with hPDGFRb.mmh [2] came to 492000 M⁻¹ s⁻¹; in assay [3], 544000 M⁻¹ s⁻¹; with human PDGFRb.hFc [4] it was 757000 M⁻¹ s⁻¹; with hPDGFRb.mmh [6], 335000 M⁻¹ s⁻¹; in assay [7], 359000 M⁻¹ s⁻¹; in the assay with human PDGFRb.hFc [8], 621000 M⁻¹ s⁻¹. Besides, the t1/2 is 2 min in the assay with hPDGFRb.mmh [2]; 2 min in assay [3]; 38 min with human PDGFRb.hFc [4]; 11 min with hPDGFRb.mmh [6]; 10 min in [7]; 70 min in the assay with human PDGFRb.hFc [8]. For the same molecule, the “% Maximum Blocking” value with hPDGFRb.mmh [13] is 90%. Further, the IC50 in the assay with hPDGFRb.mmh [13] was found to be 0.24 nM. Besides, the “Percent Internalization (Relative to Control I)” value in assay [14] was determined as 87%. For the same molecule, the “IC50, blocking PDGF-BB (250 pM) activation, SRE-luciferase” value in assay [17] came to 2e-10 M. Also, the “IC50, blocking PDGF-DD (400 pM) activation, SRE-luciferase” value in assay [17] came to 2.6e-10 M.

For the origin of these results see patent US20170210813A1 (Regeneron, published 2017).
